{"source": "paper PMC8664846", "about": "“Heterogeneous dissociation process of truncated RNAs by oligomerized Vasa helicase” (Communications Biology, 2021)", "key": {"[1]": {"biological_target": "T1, Siwi-piRISC (FLAG-Siwi loaded with piRNA) (Bombyx mori, UniProt A8D8P8 1-899)", "T1 construct": "Siwi (Silkworm Piwi), PIWI protein of Bombyx mori; In the assay Siwi carried piRNA (exogenous piRNA-4) and was held on the glass through the biotinylated, ATTO647N-labelled target RNA; the only protein chain is Siwi; also called Silkworm Piwi; source: BmN4 cells, purified (anti-FLAG gel column)", "T1 sequence (looked up)": "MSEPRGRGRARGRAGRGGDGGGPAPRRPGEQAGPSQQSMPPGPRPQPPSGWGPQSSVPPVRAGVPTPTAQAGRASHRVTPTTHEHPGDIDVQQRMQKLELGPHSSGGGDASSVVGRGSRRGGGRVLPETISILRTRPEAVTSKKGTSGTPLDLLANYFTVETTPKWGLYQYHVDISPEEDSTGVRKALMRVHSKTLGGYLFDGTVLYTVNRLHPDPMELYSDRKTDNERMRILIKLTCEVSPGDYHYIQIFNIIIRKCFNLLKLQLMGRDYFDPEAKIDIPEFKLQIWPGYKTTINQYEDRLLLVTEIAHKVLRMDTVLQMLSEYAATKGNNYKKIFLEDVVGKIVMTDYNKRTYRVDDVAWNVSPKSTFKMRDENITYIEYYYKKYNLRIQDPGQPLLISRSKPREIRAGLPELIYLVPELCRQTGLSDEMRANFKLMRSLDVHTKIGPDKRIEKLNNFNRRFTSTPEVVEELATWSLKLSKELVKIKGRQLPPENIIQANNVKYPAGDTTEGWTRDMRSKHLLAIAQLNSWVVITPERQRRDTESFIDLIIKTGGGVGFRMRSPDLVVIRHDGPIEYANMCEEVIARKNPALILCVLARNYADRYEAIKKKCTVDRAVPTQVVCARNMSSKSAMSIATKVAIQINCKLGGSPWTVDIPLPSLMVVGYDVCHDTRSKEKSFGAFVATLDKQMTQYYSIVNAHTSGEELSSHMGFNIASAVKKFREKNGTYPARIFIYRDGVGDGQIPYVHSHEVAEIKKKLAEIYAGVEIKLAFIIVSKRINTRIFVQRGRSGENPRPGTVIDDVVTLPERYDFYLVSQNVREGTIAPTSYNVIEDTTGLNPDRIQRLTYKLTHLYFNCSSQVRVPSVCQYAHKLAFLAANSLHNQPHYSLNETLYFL", "assay": "single-molecule two (or three)-colour colocalisation (TIRF microscopy); premix of 10 nM biotinylated ATTO647N target RNA, 625 nM TMR-Vasa and 380 nM Siwi fixed on the surface by avidin-biotin through the target RNA; exogenous piRNA-4; assay buffer with oxygen scavenger; no ATP", "conditions": "both partners purified"}, "[2]": {"biological_target": "the molecule itself", "assay": "single-molecule fluorescence intensity counting (TIRF microscopy); TMR-labelled Vasa adsorbed on poly-L-lysine-coated glass; number of molecules in a spot from the intensity of a single TMR; 30 mM HEPES pH 7.3, 150 mM potassium acetate, 5 mM magnesium acetate, 0.1% NP-40, 500 uM TCEP, oxygen scavengers; with 5 ug/ml yeast RNA further oligomerization"}}}
{"binder": "FLAG-Halo-Vasa (wild-type Bombyx mori Vasa) (enzyme, UniProt O01378 1-601, looked up, TMR-labelled HaloTag ligand on the HaloTag; the immobilised copy in the aggregation measurement also labelled with Biotin-XX-NHS, Vasa, ATP-dependent DEAD-box RNA helicase of Bombyx mori, wild type; Non-fluorescent Vasa was used only in RNA dissociation assays; also called WT-Vasa; TMR-Vasa; source: BmN4 cells, purified (anti-FLAG gel column); not shown: HaloTag, N-terminal, kept) MDDDWDDSCEAVVVPPPPLQNHDSVDEGHSLSRGRGFPSFNEDDEKENGYGERRGRGGRGGGRGRGGRGGRGGSREQHSDYETNGDHDDRGRGERGRGRGRGGRGGGRGGGGGGGDRNDYEDNEIGENGETKKPVTYVPPEPTNDETEIFSSTISSGINFDKFDHIAVKVSGENPPRPIESFETANLRKYVLDNVLKAGYRKPTPIQKNAIPIIMSGRDLMGCAQTGSGKTAAFLVPIINMLLQDPKDLISENGCAQPQVIIVSPTRELTLQIFNEARKFSYGSVLKVAVAYGGTAVRHQGDNIARGCHILVATPGRLHDFVERNRVSFGSVRFVVLDEADRMLDMGFMPSIEKMMLHPTMVETTKRQTLMFSATFPEDIQHLAGRFLNNYLFVAVGIVGGASTDVEQIFIEVTKYEKRNSLKQLIEENDGKRILVFVETKRNADFIAAMLSEQQLLTSSIHGDRMQREREEALQNFKSGKHCILVATAVAARGLDIKNVDIVVNYDLPKSIDEYVHRIGRTGRVGNRGKAVSFYDSDQDLALVADLSKILRQADQSVPDFLKGGGTATFKGNKYGGSDVRNFNNANTAVVDQGQEPEEEW", "values": [{"measurement": "binding result", "setting": "[1]", "result": "binds"}, {"measurement": "stoichiometry N", "setting": "[2]", "result": 2}]}
